Test results: patent US20070160658A1, “Delivery system for diagnostic and therapeutic agents” (The Penn State Research Foundation, priority 2005, published 2007)

Biological target: T1, IL-13Rα2 (Homo sapiens, UniProt Q14627)
T1 sequence (Q14627 27-380): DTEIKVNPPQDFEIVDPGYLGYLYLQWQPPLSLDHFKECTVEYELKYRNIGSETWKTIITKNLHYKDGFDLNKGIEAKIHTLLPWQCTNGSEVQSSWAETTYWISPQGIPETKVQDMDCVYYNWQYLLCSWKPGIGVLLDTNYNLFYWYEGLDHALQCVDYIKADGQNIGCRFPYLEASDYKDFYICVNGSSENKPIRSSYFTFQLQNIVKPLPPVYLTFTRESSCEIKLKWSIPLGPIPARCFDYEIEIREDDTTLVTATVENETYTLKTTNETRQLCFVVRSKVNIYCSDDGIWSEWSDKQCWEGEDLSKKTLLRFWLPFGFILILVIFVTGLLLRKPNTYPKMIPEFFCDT
Experiment: titered cytotoxicity neutralization assay against IL13-PE38QQR cytotoxin
Format: cell-based
Settings: protein 100 ng/ml; cytotoxin IL13-PE38QQR fixed at 10 ng/ml
Method: Additionally, position K105 of this region of IL-13 is mutated into a variety of amino acids and the mutants' cytotoxic neutralization potential and binding affinity towards IL-13Rα2 is determined. […] In this titered cytotoxicity neutralization experiment, higher neutralization efficiency against the IL13-PE38QQR cytotoxin, for the mutant IL13.K105R is observed (Madhankumar A. B., Mintz, A., and Debinski, W. (2004) Neoplasia (New York) 6, 15-22). IL13.K105R is able to neutralize the cytotoxicity to 99% at 100 ng/ml concentration when compared with its blocking efficiency at 1000 ng/ml concentration. However, the wild type IL-13 and the mutant IL13.K106R and IL13.R109K have only 86.5%, 86.7% and 80.7% of the cytotoxicity neutralization efficiency with respect to their neutralization efficiency at 1000 ng/ml concentration. […] The high affinity mutant IL13.K105R is used as a ligand to conjugate to liposomes in order to better target the glioma associated IL-13Rα2 receptor.

Substance | cytotoxicity neutralization efficiency with respect to neutralization efficiency at 1000 ng/ml [%]
wild type IL-13: human cytokine interleukin-13, wild type | 86.5
IL13.K106R: mutant of IL-13 at position 106 | 86.7
